Consider four substances from paper PMC9890229.

The target in series [1] is Pseudomonas aeruginosa Hfq (Pseudomonas aeruginosa) (UniProt Q9HUM0).
For series [2], the target named is Crc R90E,Y91F (Flag-tagged, from pME4510crc(R90E,Y91F)Flag) (Pseudomonas aeruginosa) (UniProt Q51380).
The target of series [3] is Hfq (Pseudomonas aeruginosa) (UniProt Q9HUM0). The series can be described thus: EMSA. The conditions noted are these: EMSA: 20 mM Tris-HCl pH 8.0, 40 mM NaCl, 10 mM KCl, 1 mM MgCl2; 200 nM RNA; 15 min at 37 C; 4% PAA gel in 1x TBE at 4 C, SYBR gold. On the technique in general: Mobility shift assays separate free from complexed probe on a gel.

In the case of “Crc R90E,Y91F (Flag-tagged, from pME4510crc(R90E,Y91F)Flag) (from UniProt Q51380 1-259) (natural protein)”, in series [1], the de-repression of translation of the amiE+60::lacZ reporter gene (β-galactosidase activity) in P. aeruginosa PAO1Δcrc came to 7 fold and the de-repression of translation of the estA+18::lacZ reporter gene (β-galactosidase activity) in P. aeruginosa PAO1Δcrc is 2 fold. The substance further had a translational repression of the rbsB+13::lacZ reporter gene (β-galactosidase activity) in P. aeruginosa PAO1Δcrc in series [2] of 2 fold.

Turning to “GGAACGCAAACGUUUGCGUCUGGAUAAUCUCCUGGAAAAGCCUCAAUACAACGAUAAGAAAAGCUGGAGGAUACACCAUGAAGCGGGUCGCUUCCCGGCGCCUGUUGGCU [rbsB110]”, the binding result in series [3] is reported as “binds”. As to “GGCUGAGGAGGCUUUACGACGGGCCCCGGGGCGCAUGCCGACGACGCGGCGGCCCGACAAUAAAAACAAAUCAUGGAGUAAGAGAAUGAUCAGAAUGGCGCUCAAGCCACUGGUAGCG [estA118]”, the binding result in series [3] was “binds”. “GGGCCUUUUUUCGUCCCGAAAAAAUAACAACAAGAGGUGAUAUCCAUGCGUCACGGCGAUAUUUCCAGCAGCAACGACACCGUCGGAGUGGCGGUGGUCAACUAC [amiE105]”: the binding entry in series [3] was “binds”.
